These results are taken from the RNAGym collection of RNA variant scans (doi:10.1093/nar/gkz1192).

B1: CPEB3 Ribozyme (parent)
chain: UAACAGGGGGCCACAGCAGAAGCGUUCACGUCGCAGCCCCUGUCAGAUUCUGGUGAAUCUGCGAAUUCUGCUGUAUAUCUC

The data set covers variants of B1. The data set is described as follows: self-cleavage, relative activity (ratio to wild type); higher = more cleavage; in vitro, sequencing. The essentials:
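CPEB3 self-cleaving ribozyme mutant libraries were made by rounds of error-prone PCR, barcoded, and transcribed in vitro with T7 RNA polymerase for 5 hours at 37°C. Cleavage occurred during transcription and a 15 min DNase I step before EDTA stop. RNAs were reverse transcribed with template switching and Illumina-sequenced, with DNA sequencing mapping barcodes to variants. Relative activity is the variant's cleaved/total read fraction divided by wild type's (minimum 5 reads), averaged across three batches.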
As to U25C G63C, the self-cleavage came out at 0.26.
As to U25C U78C, the self-cleavage was found to be 0.24.
The result for U25C U78A reads 0.25; that for U25C U78G, 0.22; that for U26C C29A, 0.18.
U26C C29G: the self-cleavage turned out to be 0.35.
The result for U26C C29U reads 0.29.
The result for U26A G70A reads 0.4; that for U26A G70C, 0.2; that for U25G U49C, 0.45.
On to U25G U49A, for which the self-cleavage stood at 0.26.
As to U26C C62A, the self-cleavage came out at 0.38.
For U26C C62G, the self-cleavage amounted to 0.17.
The result for U26A G30U reads 0.19.
On to U26A G30C, for which the self-cleavage came out at 0.24.
The result for U26C A45G reads 0.32.
The result for U26C A45U reads 0.26; that for U26C A45C, 0.36.
In the case of U26A C29G, the self-cleavage is 0.3.
On to U26A C50A, for which the self-cleavage came to 0.76.
As for U26A C50U, the self-cleavage was 0.47.
For U25G C32A, the self-cleavage was found to be 0.26.
On to U25G C34U, for which the self-cleavage was found to be 0.15.
The result for U25C G55A reads 0.28; that for U25C G55U, 0.21.
In the case of U25C G55C, the self-cleavage came out at 0.33.
As for U25G U60C, the self-cleavage was found to be 0.24.
As to U25G U60A, the self-cleavage was found to be 0.19.
On to U26C A56U, for which the self-cleavage was 0.28.
For U26C A56C, the self-cleavage worked out at 0.31.
For U26C A56G, the self-cleavage came to 0.38.
For U26A G73A, the self-cleavage came to 0.96.
The result for U25C U54A reads 0.28; that for U25C U54G, 0.31.
The result for U25C U54C reads 0.27; that for U25G U58C, 0.2; that for U25G U58A, 0.14.
On to U25C C59A, for which the self-cleavage came out at 0.16.
As to U25C C59U, the self-cleavage was 0.28.
In the case of U25C U74A, the self-cleavage amounted to 0.42.
The result for U25C U74C reads 0.35; that for U26A U31C, 0.69; that for U26A U31A, 0.34.
U25G G70C: the self-cleavage amounted to 0.33.
In the case of U25C U60C, the self-cleavage was 0.23.
On to U25C U60G, for which the self-cleavage is 0.13.
As for U25C U60A, the self-cleavage is 0.24.
In the case of U25G U31A, the self-cleavage turned out to be 0.23.
Turning to U25G U31C, the self-cleavage stood at 0.19.
In the case of U26C C40U, the self-cleavage was found to be 0.34.
For the variant U26C C40A, the self-cleavage came to 0.26.
The result for U25C U80C reads 0.35.
The result for U25C U80A reads 0.28.
On to U25C C81U, for which the self-cleavage turned out to be 0.15.
For the variant U25C C81A, the self-cleavage amounted to 0.23.
Turning to U25C C81G, the self-cleavage worked out at 0.22.
As for U26A C68A, the self-cleavage turned out to be 0.31.
Regarding U26A C68U, the self-cleavage turned out to be 0.79.
As to U26A U43A, the self-cleavage turned out to be 0.39.
On to U26A U43C, for which the self-cleavage is 0.29.
U26A U43G: the self-cleavage worked out at 0.33.
On to U25C G73U, for which the self-cleavage came out at 0.43.
As for U26C C39U, the self-cleavage came to 0.61.
As for U26C C39A, the self-cleavage was found to be 0.33.
As to U25G A64G, the self-cleavage is 0.24.
As to U25G A64U, the self-cleavage is 0.23.
Consider U26A A35C, for which the self-cleavage is 0.65.
Turning to U26A A35G, the self-cleavage was 1.29.
The result for U26A A35U reads 0.38; that for U26A G53U, 1.04; that for U26A G53A, 1.
As to U26C C44U, the self-cleavage is 0.26.
For the variant U26C C44A, the self-cleavage is 0.09.
Turning to U26C A64C, the self-cleavage was 0.31.
Consider U26C A64G, for which the self-cleavage is 0.36.
The result for U26C A64U reads 0.26; that for U25G A45G, 0.29; that for U26A C37U, 0.5.
With U26A C37G, the self-cleavage is 0.62.
Take U25C C71A: the self-cleavage was determined as 0.13.
As for U25C C71G, the self-cleavage turned out to be 0.1.
Take U25C C71U: the self-cleavage amounted to 0.1.
The result for U25G U41C reads 0.4.
In the case of U25G U41A, the self-cleavage worked out at 0.19.
The result for U25G U41G reads 0.43.
With U26C A35C, the self-cleavage was found to be 0.32.
In the case of U26C A35G, the self-cleavage stood at 1.07.
On to U26C A35U, for which the self-cleavage was determined as 0.24.
Take U26A G52A: the self-cleavage was 1.06.
The result for U26A G52U reads 1.08; that for U26A G52C, 1; that for U25C U26A, 0.28.
The result for U25C U26G reads 0.31.
Turning to U25C U26C, the self-cleavage worked out at 0.27.
The result for U26A G33U reads 0.1.
U26A G33A: the self-cleavage worked out at 0.17.
Take U25G A35U: the self-cleavage stood at 0.39.
The result for U25G A35G reads 0.9; that for U26A A57G, 0.78.
Turning to U26A A57U, the self-cleavage was 0.62.
Regarding U25C G36U, the self-cleavage stood at 0.16.
As to U25C G36A, the self-cleavage was found to be 0.17.
On to U26A U60C, for which the self-cleavage came to 0.34.
On to U26A U60A, for which the self-cleavage stood at 0.52.
U26C C37A: the self-cleavage stood at 0.13.
The result for U26C C37G reads 0.71; that for U26C C37U, 0.32; that for U26A A77G, 0.91.
The result for U26A A77U reads 1.03; that for U25G U51A, 0.3; that for U25G U51C, 0.4.
As for U25C U41A, the self-cleavage was found to be 0.3.
As for U25C U41G, the self-cleavage came to 0.27.
In the case of U25C U41C, the self-cleavage stood at 0.28.
On to U25C U67G, for which the self-cleavage was 0.11.
Consider U25C U67C, for which the self-cleavage was determined as 0.2.
With U25C U67A, the self-cleavage was 0.25.
In the case of U25G A75G, the self-cleavage is 0.29.
The result for U25G U66C reads 0.23; that for U26A U76C, 0.74.
U26A U76A: the self-cleavage came out at 1.02.
Turning to U25G A28U, the self-cleavage was determined as 0.31.
As to U25G A28G, the self-cleavage amounted to 0.37.
As for U26A U72G, the self-cleavage was found to be 0.83.
For the variant U26A U72A, the self-cleavage was 0.75.
Take U26A U72C: the self-cleavage came to 1.13.
Regarding U25G U26C, the self-cleavage was 0.33.
In the case of U25G A47U, the self-cleavage was determined as 0.32.
As to U26A C71U, the self-cleavage stood at 0.24.
The result for U26A C71A reads 0.2; that for U25G U67G, 0.19.
Regarding U25G U67A, the self-cleavage is 0.22.
Turning to U25C C62U, the self-cleavage is 0.11.
U25C C62G: the self-cleavage was 0.18.
The result for U26A C39U reads 0.56; that for U26A C34U, 0.29; that for U26A C34G, 0.41.
For the variant U26A C32A, the self-cleavage amounted to 0.16.
With U26A C32G, the self-cleavage came to 0.13.
As to U25C C68A, the self-cleavage stood at 0.24.
Consider U26C A65C, for which the self-cleavage is 0.28.
Consider U26C A65U, for which the self-cleavage was 0.3.
The result for U26C A65G reads 0.3; that for U26A C27A, 0.31; that for U26A C27G, 0.12.
As to U25C C50G, the self-cleavage is 0.37.
For the variant U25C C50A, the self-cleavage is 0.09.
Take U25C C50U: the self-cleavage came to 0.27.
For the variant U25C U69A, the self-cleavage amounted to 0.22.
With U25C U69C, the self-cleavage was found to be 0.22.
With U25C U69G, the self-cleavage worked out at 0.21.
Take U25C U31G: the self-cleavage is 0.23.
With U25C U31C, the self-cleavage was determined as 0.23.
The result for U25C U31A reads 0.25; that for U26C C27U, 0.27; that for U26A A56G, 0.68.
U26A A56U: the self-cleavage came to 0.4.
The result for U26A A56C reads 0.49; that for U25G U54A, 0.49.
In the case of U25G U54C, the self-cleavage came out at 0.43.
Consider U25C C44U, for which the self-cleavage is 0.23.
As for U26A U51C, the self-cleavage is 0.84.
For U26A U51G, the self-cleavage was 0.8.
As to U26A U51A, the self-cleavage was determined as 0.81.
As to U26A U58A, the self-cleavage stood at 0.23.
For the variant U26A U58G, the self-cleavage came to 0.17.
Consider U26A U58C, for which the self-cleavage came out at 0.39.
